Data reported in publication doi:10.1101/2023.01.19.524784 (bioRxiv, 2023).

How the values were obtained:
[1] = biological target: SARS-CoV-2 Delta variant RBD (SARS-CoV-2, Delta (B.1.617.2), strain); assay: BLI
[2] = biological target: T1, SARS-CoV-2 receptor binding domain (RBD), wild type (SARS-CoV-2, wild type (Wuhan), UniProt P0DTC2); assay: BLI
[3] = biological target: T2, SARS-CoV-2 Omicron BA.1 RBD (SARS-CoV-2, Omicron BA.1, strain); assay: BLI
[4] = biological target: SARS-CoV-2 Beta variant RBD (SARS-CoV-2, Beta (B.1.351), strain); assay: BLI
[5] = biological target: T2, SARS-CoV-2 Omicron BA.1 RBD; assay: cell-based or functional assay
[6] = biological target: T1, SARS-CoV-2 receptor binding domain …; assay: cell-based or functional assay

B1: 20A7 (antibody, V domains shown)
VH: DVQLVESGGGLVKPGGSLRLSCVASGFTFSNSEMHWVRQAPGKGLEWVSVISESGETTHYADSVKGRFTISRDNANNLLLLQMNSLRADDTAVYYCTRYNWNNRVYALDSWGQGVVVTVSS
VL: EIVLTQSPATLSLSPGEGASLSCRASQTVIGSLAWYQQKPGQAPRLLIYGASSRATGIPDRFSGSGSGTDFTLTISSLEPEDFAVYYCQQYGNWPLTFGPGTRLDIR
[1]
  Kd: < 0.666 pM
[2]
  Kd: < 0.666 pM
[3]
  Kd: < 0.666 pM
[4]
  Kd: < 0.666 pM
[5]
  IC50 of neutralization of authentic SARS-CoV-2 BA.1: 6 ng/mL

B2: 20A7-VH E33V (antibody, V domains shown)
VH: DVQLVESGGGLVKPGGSLRLSCVASGFTFSNSVMHWVRQAPGKGLEWVSVISESGETTHYADSVKGRFTISRDNANNLLLLQMNSLRADDTAVYYCTRYNWNNRVYALDSWGQGVVVTVSS
VL: EIVLTQSPATLSLSPGEGASLSCRASQTVIGSLAWYQQKPGQAPRLLIYGASSRATGIPDRFSGSGSGTDFTLTISSLEPEDFAVYYCQQYGNWPLTFGPGTRLDIR
[2]
  fold reduction of binding against 20A7: ~300 fold

B3: 21B6 (antibody, V domains shown)
VH: EVRLVESGGGLVQPGGSLRLSCAASGFTFSDYYISWVRQAPGRGPEWVGFIRNVLYRGTTEYAPSVKGRFIISRDDSRAIASLQMNGLKADDTAVYYCALGASGTDRDWFDVWGPGVLVTVSS
VL: DIQMTQSPSSLSASVGDTVTITCRASQDISNSLAWYQQKPGKAPKALIYYASNLESGVPSRFSGSGSGTDFTLTISSLQPEDFATYYCQQHNNYPFTFGPGTKVDIK
[1]
  Kd: < 0.666 pM
[2]
  Kd: < 0.666 pM
[3]
  Kd: < 0.666 pM
[4]
  Kd: < 0.666 pM
[5]
  IC50 of neutralization of authentic SARS-CoV-2 BA.1: 11 ng/mL

B4: 25F9 (antibody, V domains shown)
VH: EVQLVESGGGLVQPGGSLRLSCSASGFRFSDYWINWVRQAPGKGLEWVGFIKTKADFGTPAYAESVKGRFSISRDDSKNTVYLQMNSLKTEDTAVYYCTRDRGILEWLIIEAGWFDVWGPGVLVTVSS
VL: QSVLTQPPSASGAPGQRVTISCTGSSSNIGAGHYVSWYQQLPGTAPKLLIHENDKRPSGVSDRFSGSRSGASASLTITGLQSGDEADYYCSVWDRSLNTLFGGGTRVTVL
[1]
  Kd: < 0.666 pM
[2]
  Kd: < 0.666 pM
[3]
  Kd: < 0.666 pM
[4]
  Kd: < 0.666 pM
[6]
  IC50 of neutralization of authentic SARS-CoV-2 D614G: 6 ng/mL
[5]
  IC50 of neutralization of authentic SARS-CoV-2 BA.1: 42 ng/mL
